# Assay results taken from IntAct's records for PubMed 36931259.
# B1: 14-3-3 protein sigma (Homo sapiens), P31947 (parent)
# chain: MERASLIQKAKLAEQAERYEDMAAFMKGAVEKGEELSCEERNLLSVAYKNVVGGQRAAWRVLSSIEQKSNEEGSEEKGPEVREYREKVETELQGVCDTVLGLLDSHLIKEAGDAESRVFYLKMKGDYYRYLAEVATGDDKKRIIDSARSAYQEAMDISKKEMPPTNPIRLGLALNFSVFHYEIANSPEEAISLAKTTFDEAMADLHTLSEDSYKDSTLIMQLLRDNLTLWTADNAGEEGGEAPQEPQS
# partner: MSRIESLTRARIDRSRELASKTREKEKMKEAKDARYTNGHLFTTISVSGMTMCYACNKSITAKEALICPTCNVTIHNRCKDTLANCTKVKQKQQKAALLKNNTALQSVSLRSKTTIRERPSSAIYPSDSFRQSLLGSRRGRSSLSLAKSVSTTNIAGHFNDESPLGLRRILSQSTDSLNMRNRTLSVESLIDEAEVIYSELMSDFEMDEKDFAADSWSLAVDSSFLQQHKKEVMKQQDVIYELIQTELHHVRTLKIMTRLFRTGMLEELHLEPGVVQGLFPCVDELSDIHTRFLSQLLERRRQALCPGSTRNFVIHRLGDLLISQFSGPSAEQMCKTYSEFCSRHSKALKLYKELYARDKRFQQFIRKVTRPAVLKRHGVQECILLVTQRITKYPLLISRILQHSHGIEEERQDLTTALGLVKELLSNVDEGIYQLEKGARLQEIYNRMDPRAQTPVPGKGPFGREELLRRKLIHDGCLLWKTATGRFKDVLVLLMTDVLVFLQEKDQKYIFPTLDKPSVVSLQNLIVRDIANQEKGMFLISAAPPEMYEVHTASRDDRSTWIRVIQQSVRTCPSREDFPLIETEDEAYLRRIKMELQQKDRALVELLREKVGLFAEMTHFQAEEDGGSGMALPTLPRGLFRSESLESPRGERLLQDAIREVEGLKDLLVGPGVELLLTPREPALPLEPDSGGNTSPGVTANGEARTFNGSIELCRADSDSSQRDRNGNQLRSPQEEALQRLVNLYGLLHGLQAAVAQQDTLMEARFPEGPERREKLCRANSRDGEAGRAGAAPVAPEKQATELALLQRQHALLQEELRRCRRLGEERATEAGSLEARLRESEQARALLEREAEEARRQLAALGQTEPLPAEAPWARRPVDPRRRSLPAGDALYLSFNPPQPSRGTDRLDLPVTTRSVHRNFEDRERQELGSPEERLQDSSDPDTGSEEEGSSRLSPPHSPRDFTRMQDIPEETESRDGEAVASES
# B2: 14-3-3 protein sigma (Homo sapiens), P31947 (parent)
# chain: B1 chain
# partner: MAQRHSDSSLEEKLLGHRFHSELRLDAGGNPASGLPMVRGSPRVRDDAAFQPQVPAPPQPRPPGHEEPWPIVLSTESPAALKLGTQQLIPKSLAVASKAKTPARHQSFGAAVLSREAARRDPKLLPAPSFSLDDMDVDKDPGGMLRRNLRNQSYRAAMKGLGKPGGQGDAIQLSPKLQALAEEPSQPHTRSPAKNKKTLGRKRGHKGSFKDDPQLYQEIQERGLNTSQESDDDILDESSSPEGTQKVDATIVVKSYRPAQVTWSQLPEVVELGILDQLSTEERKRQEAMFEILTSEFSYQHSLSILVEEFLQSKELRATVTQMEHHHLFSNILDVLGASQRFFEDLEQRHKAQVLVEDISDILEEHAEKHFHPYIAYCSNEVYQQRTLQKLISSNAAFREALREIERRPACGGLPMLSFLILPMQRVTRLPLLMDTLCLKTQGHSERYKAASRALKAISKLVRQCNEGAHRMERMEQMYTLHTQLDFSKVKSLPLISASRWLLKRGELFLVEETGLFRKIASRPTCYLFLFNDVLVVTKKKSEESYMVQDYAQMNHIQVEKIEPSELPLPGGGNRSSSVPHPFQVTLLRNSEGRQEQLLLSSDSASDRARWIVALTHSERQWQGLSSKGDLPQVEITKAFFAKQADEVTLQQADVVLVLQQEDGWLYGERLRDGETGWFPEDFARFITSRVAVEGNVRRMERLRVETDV
# B3: 14-3-3 protein sigma (Homo sapiens), P31947 (parent)
# chain: B1 chain
# partner: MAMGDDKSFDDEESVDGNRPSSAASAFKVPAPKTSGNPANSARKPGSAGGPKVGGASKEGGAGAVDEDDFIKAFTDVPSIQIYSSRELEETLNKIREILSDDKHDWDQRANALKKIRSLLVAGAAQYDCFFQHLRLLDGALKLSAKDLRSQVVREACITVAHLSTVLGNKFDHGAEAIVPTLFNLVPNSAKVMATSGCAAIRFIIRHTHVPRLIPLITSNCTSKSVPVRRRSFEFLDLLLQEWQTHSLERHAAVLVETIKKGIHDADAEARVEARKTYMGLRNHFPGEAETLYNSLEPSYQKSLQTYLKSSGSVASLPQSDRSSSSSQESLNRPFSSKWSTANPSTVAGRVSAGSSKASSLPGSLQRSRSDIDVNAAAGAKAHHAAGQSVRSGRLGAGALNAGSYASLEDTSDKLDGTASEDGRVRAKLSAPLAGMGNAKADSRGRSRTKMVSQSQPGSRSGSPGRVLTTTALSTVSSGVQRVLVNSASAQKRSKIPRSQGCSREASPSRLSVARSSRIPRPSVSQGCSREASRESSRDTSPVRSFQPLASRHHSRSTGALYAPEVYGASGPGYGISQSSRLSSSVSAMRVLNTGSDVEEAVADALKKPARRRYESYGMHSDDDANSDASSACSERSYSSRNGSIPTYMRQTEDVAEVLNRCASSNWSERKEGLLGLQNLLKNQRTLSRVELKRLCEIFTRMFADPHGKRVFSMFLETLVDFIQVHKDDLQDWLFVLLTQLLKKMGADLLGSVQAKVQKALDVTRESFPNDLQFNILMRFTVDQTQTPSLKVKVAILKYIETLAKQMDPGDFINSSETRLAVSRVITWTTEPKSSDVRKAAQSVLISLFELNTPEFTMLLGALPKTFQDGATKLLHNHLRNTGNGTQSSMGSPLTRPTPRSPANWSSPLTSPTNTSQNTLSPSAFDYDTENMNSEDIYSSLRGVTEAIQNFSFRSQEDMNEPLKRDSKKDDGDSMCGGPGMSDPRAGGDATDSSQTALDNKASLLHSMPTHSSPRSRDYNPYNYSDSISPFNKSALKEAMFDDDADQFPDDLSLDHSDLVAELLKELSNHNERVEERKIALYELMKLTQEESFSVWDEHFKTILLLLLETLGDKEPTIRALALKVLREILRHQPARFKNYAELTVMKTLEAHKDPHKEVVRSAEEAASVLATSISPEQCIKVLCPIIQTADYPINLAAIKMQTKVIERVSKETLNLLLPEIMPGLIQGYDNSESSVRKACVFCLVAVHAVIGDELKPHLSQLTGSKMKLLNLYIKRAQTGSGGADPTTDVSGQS
# B4: 14-3-3 protein sigma (Homo sapiens), P31947 (parent)
# chain: B1 chain
# partner: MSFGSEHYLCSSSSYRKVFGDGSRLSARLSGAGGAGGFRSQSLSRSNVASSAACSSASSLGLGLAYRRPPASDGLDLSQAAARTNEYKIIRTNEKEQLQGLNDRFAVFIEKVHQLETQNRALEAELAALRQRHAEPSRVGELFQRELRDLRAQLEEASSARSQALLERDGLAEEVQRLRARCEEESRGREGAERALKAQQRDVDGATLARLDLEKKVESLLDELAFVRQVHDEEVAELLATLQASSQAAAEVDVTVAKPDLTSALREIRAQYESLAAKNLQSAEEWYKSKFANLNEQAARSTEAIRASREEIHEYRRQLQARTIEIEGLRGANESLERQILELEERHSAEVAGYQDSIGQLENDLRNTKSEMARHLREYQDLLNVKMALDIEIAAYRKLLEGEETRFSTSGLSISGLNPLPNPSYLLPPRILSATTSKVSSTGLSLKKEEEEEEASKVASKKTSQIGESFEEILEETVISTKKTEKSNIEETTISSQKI
# B5: 14-3-3 protein sigma (Homo sapiens), P31947 (parent)
# chain: B1 chain
# partner: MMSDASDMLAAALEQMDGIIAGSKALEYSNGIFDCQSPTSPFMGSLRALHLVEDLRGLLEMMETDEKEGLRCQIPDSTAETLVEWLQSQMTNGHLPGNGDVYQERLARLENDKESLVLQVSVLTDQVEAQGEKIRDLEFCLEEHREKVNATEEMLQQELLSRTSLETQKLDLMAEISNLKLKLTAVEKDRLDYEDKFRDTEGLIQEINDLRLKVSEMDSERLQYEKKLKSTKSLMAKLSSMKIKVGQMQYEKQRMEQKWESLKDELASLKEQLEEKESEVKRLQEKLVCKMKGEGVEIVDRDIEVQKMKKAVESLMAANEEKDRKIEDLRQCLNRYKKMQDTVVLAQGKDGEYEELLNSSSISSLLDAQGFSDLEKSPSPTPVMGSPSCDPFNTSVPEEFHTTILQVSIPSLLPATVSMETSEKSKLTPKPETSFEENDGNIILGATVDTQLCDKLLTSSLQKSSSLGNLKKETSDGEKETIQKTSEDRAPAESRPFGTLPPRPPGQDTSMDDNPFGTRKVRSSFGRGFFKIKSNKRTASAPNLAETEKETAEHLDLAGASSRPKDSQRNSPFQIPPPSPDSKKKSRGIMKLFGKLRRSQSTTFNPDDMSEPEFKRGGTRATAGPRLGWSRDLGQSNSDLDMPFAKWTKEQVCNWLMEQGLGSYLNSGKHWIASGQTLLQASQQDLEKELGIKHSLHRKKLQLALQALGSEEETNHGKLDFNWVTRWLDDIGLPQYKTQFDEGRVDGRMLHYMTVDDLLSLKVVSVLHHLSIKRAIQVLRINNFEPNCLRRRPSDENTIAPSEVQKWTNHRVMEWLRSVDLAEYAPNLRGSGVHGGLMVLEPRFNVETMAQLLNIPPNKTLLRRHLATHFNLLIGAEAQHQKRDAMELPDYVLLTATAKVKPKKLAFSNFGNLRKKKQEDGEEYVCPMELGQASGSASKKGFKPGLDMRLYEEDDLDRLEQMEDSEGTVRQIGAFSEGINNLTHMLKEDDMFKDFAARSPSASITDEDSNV
# Variants of: B1
# Conditions: with arhg2_human ARHGEF2, Q92974
row,Variant,effect of a mutation on the interaction
1,K49E;R56E;V178D,decreasing interaction strength

# Variants of: B2
# Conditions: with arhgg_human ARHGEF16, Q5VV41
row,Variant,effect of a mutation on the interaction
1,K49E;R56E;V178D,decreasing interaction strength

# Variants of: B3
# Conditions: with clap2_human CLASP2, O75122
row,Variant,effect of a mutation on the interaction
1,K49E;R56E;V178D,decreasing interaction strength

# Variants of: B4
# Conditions: with ainx_human INA
row,Variant,effect of a mutation on the interaction
1,K49E;R56E;V178D,decreasing interaction strength

# Variants of: B5
# Conditions: with lipb1_human PPFIBP1, Q86W92
row,Variant,effect of a mutation on the interaction
1,K49E;R56E;V178D,decreasing interaction strength
